Biological target: Control
Test: SPR

Kd: 329 nM
B1: muFcgRIV (receptor)
chain: GLQKAVVNLDPKWVRVLEEDSVTLRCQGTFSPEDNSIKWFHNESLIPHQDANYVIQSARVKDSGMYRCQTALSTISDPVQLEVHMGWLLLQTTKWLFQEGDPIHLRCHSWQNRPVRKVTYLQNGKGKKYFHENSELLIPKATHNDSGSYFCRGLIGHNNKSSASFRISLGDPGSPSMFPPWHQ

From patent publication US20120148575A1 (published 2012)
